In the supplement of paper PMC12042874:
± gives the uncertainty stated by the source.

Experiment: amyloid nucleation score (Sup35N fusion, yeast selection) (log enrichment); library NNK3; higher = more nucleation; inactive = no reads after selection
Procedure, shortened: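 The nucleation score is a DiMSum log enrichment of output over input reads, centred on the mode score of non-aggregating sequences. Sequences under 100 input reads were excluded, and reads came from Illumina sequencing of plasmid inserts. Psi-negative yeast expressing Sup35N fused to peptides of 20 random codons were induced with 100 μM copper sulfate for 24 hours and grown 7 days at 30°C on medium lacking adenine and uracil. Random libraries had three technical output replicates.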

Substance | amyloid nucleation score
VSLFYKCSYNGVYNNRVLAP | 1.43 ± 0.09
VCSVVARWFVESFCCISWMC | inactive
QALPSRLGSAGFDYWPPAMS | -0.039 ± 0.53
DRSIS | inactive
DHLSVWVSRLDTINCLREVG | inactive
NNFNISLRVRRSFKKCFFVR | 1.85 ± 0.077
DIHVKNCVVCMYSG | 2.44 ± 0.057
CRGTWDNDAVGRVDRNSRKS | inactive
ERARAAWSNGKAGLLWSGPG | inactive
MKVIRTYRGYGCQDWIELLF | inactive
WVNKEDESVVWYIWFGIECC | inactive
RRSCCLVLTIRVFCRICRDE | inactive
ENPVSCKAIYYTVSIITSFS | inactive
PGLRVNYFRGESLDVYIVEE | 2.14 ± 0.071
YGNHFSNNDGSIFER | inactive
GTGGSVRPHCEFSLRSSYMV | inactive
GYDLFCGILMVDNSASIHTP | 2.84 ± 0.063
RGKYFGCYLSVYSHL | inactive
KQPCCNVFCC | 2.42 ± 0.069
REVPT | inactive
YLHAEYRMCKLIFKMEEFRD | 0.276 ± 0.46
TAGNWWNVCVNTFNRWRRLL | inactive
MVYIKILHFVILMSMHFN | inactive

Substance | amyloid nucleation score
PLFWNGSC | inactive
RLLFMIPIMIVMNQHPTMNV | 1.01 ± 0.17
GSWSKNMILHTLDLDCVAIV | inactive
FRFTFLMRNML | inactive
TNSFAYNWLNAW | inactive
WGTVMTLSCVALEVYFSLRV | inactive
GSRCSASPKNSESGRGKYFG | inactive
NWHDYSSGVGLKIRGECMNV | inactive
VGHPFNCSLDCF | inactive
SFICVSSDLCARARVGDSSR | inactive
VYIRQLRMPAFCLTSGRALD | inactive
KPPQNILVDMRLEGSMC | inactive
RPDCEYGSS | inactive
RWGLYLR | inactive
KNQMVFVINY | 2.68 ± 0.053
RWFQRWEIKTNAHLLTTLNM | inactive
RSGLVRSRCSRI | inactive
VFFSWPMARKCEGSEDHPNF | 0.005 ± 0.98
RCLSNN | inactive
IGSSRIDFSSRNYGV | 0.576 ± 0.12
HCSQLFESTYKRMSHISRDL | -0.56 ± 0.73
WSRMTKSHKCRWDQLVTVHG | inactive
YLYFV | inactive

Substance | amyloid nucleation score
TYPVGPGGFFWDLGCV | inactive
ANHLPWEAVWTPRWGYGCSP | inactive
RRVFHWYKYCV | inactive
TTPYWRRECRWSEFGFA | inactive
LTHGAVTVFYRFIMLSFILR | inactive
LKAKCVIMSLPLDMGYHGKR | inactive
RSTYTSFRARWKRRANGSGW | inactive
FRYVHIHLRYQPGF | inactive
NGHWL | inactive
RCLCDPGYCCIFISENWIL | 1.74 ± 0.064
CTVLKYFLRYRRSHDL | inactive
GSISMFNKG | inactive
RCYALDFRWLILDVSYHGWG | inactive
VMRIVATQRAGWTGTREPGM | inactive
YTRISTIFGYSAMVQFMPCQ | inactive
DVDRTSCGGVSVRV | inactive
ATKYDFYMVNKRNFWKSRGF | inactive
IGRTLSHSATRLVCTDPFRR | inactive
SMYRYAKETT | inactive
NMENLKRGFVIWS | inactive
RYPGVFTTQSA | inactive
LGVCSGH | inactive
RWFRTVGKFFGHIFS | 0.039 ± 0.45

Substance | amyloid nucleation score
MVSMNSAAFLFRCHYCLGVR | inactive
GVLLTYSCSRQLSPDFNCFC | 1.62 ± 0.073
HVRDTKRVSLKRSTYADRGG | inactive
SFKATV | inactive
LFMGCPVEV | -0.515 ± 0.62
MVSDIGWYLLQFTERRSCFY | inactive
DLTDNVFYWSRNTIDEVRVR | inactive
SSAPEQRF | inactive
SWYVAFFNNSGFSCMGVFVG | inactive
DSCTEVFVKGVTRSVIVGKG | inactive
LNGSCKCLKELFVCYRSWVN | -0.79 ± 0.93
LCGCS | inactive
QHLLYSPIEPIVPSVWDIVD | inactive
HEIQGC | inactive
KDLCPFARPASRLHRVACME | inactive
IALVMSIDVAVVLMYPSPQW | 0.381 ± 0.24
GECWAPVYDFWI | inactive
QSASHRP | inactive
YAYVQRVYLACSINLMCLWY | inactive
SVLGRHYVYLLSIVCGVIFG | inactive
LREVRTAVSLGQMGRGLQA | inactive
RHMPYNGLKNDKIFYILNYT | inactive
NRRYFVELCGGNFM | inactive

Substance | amyloid nucleation score
DLSMGNCEVVGLESSTTICK | inactive
VSRCRVHKFTGYC | -0.441 ± 0.8
VVQSYFIRREEFLLSCVQAG | inactive
PNYPDLYHFLICSLCSSFVT | 1.84 ± 0.076
ARYKGWTHNWPINHLIFLNS | -0.127 ± 1.1
WFCNYRIMYKVSSIAPMLNP | inactive
FLVICCCWD | 2.08 ± 0.062
IEVGYITWKSARVWATNSSH | inactive
ADVLLMRDRAFRRGSWRMAR | inactive
AKQVGLY | inactive
FVVGIFYSIQYIECSRVSSY | -0.106 ± 0.55
CVEVY | inactive
VGPLSDSVFMYGT | inactive
LPGFSTCFARCDWWEVQPQG | inactive
VMCSWLTGCYIQKNRFQGSL | 0.724 ± 0.27
CEFTAPVICLISLCYVGRSR | 1.09 ± 0.094
TNYICCSFRFPWNHSYV | 3.4 ± 0.061
EWVANPSFGYAEWLLV | inactive
PVGRKLTTFRVNTCLLGYFK | inactive
RIVSVFLDNEQISRNGAVSS | -0.425 ± 0.59
FRSKLTW | inactive
MNNVN | inactive
YCGEYYITGNMRLPLSTPSG | inactive

Substance | amyloid nucleation score
TKRWFGLCYESVKLRVRSFA | inactive
SIQKSWDASGSLIYS | inactive
NRYLVVLRSCS | inactive
FTYVLTLMSFNGGPRGRYGW | 2.66 ± 0.068
SVRWMTGRFVGCRRNQVQFR | 0.505 ± 0.38
VFGFMCNYSFVATSRLCVIG | inactive
GILRIWNDLSLRFDKIWWG | inactive
WAVIFT | inactive
MIVHWMVHSRLVHKAVVGDG | inactive
LITCI | inactive
SLRSYSDVSVVRFDANSTVS | inactive
SCWYETMLFSLCKFKYLGLM | inactive
SAIPVWGKMRGFYLFYETHC | inactive
STLASSS | inactive
FLIKNMY | inactive
KALGAEYNTHGTVSGCSLCK | inactive
CVEAEDNFVLLKEGHAAWDV | inactive
YAWLCAASRYKTMVESLAEF | inactive
VCLFHDSLRDNYRT | inactive
GTQRVAIEDSGVIR | inactive
SGFPMVSIFESSI | inactive
FFLSTTGSMPHFPFKVSSSF | 0.088 ± 0.24
HCSWTSSAHEGPYAETGHWQ | 0.557 ± 0.24

Substance | amyloid nucleation score
SNSRVGIFWDRLVFRYCRGM | -0.5 ± 1
NGPEGSLFDLSDFCHFCLNR | 0.955 ± 0.14
FSTVTYQGVTALVNQSSVTT | inactive
TMSVMPLTVQVLVGRISDGQ | 1.71 ± 0.071
TYTWKVTNSTISQLFGYLAD | inactive
WNAYVHTNNV | inactive
ASYRAVNVDTGRIWPEFQLG | inactive
YNMSDTVRYHMSQVADCYIV | inactive
ADMCWTNRSETYDGELTVGV | inactive
YWKFWIKSDVYCRSISGWCR | inactive
YRCFLNFIEMIDTCAGDLES | inactive
ERVTRSMWTVGKRYRTGK | inactive
KDLQR | inactive
YCYLGG | -0.36 ± 0.8
CRFKGCWYSRTLRRRRSVIV | inactive
TMHLTHRYSTVLRESLVGSR | inactive
YNWIC | inactive
FCTVNH | inactive
LLTFSMVDKFLSDNSYLNGI | inactive
YFFVHEKCQVGGRGGKLAKK | inactive
TFLNSNFFPIWLVVCASA | inactive
SNWSWQSPW | inactive
WFNTTNSGVEP | inactive
